The text below walks through data of patent publication US20210253736A1 (published 2021).

The labels stand for the following.
T1: Cyno
T1 chain: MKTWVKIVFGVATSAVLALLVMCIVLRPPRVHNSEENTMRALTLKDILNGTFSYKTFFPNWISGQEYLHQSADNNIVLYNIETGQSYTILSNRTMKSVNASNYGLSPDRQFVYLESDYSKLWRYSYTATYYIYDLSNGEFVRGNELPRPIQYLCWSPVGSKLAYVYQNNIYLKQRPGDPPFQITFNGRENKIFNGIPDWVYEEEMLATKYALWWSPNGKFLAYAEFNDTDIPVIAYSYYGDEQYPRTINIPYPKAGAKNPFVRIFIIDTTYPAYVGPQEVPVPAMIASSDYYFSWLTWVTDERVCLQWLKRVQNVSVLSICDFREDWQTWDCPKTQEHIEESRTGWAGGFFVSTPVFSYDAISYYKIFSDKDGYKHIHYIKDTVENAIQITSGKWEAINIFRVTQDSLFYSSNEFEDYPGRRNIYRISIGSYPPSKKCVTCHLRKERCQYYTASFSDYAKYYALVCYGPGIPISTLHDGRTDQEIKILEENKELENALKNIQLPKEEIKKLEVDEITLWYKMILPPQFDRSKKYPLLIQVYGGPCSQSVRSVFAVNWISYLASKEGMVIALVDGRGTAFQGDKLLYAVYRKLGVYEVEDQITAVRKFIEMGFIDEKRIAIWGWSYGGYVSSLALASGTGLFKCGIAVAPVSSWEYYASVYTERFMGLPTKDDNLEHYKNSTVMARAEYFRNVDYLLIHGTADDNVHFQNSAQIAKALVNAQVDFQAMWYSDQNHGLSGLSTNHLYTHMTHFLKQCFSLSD

T2: His-tagged murine FAP (murine, UniProt P97321 26-761)
T2 chain: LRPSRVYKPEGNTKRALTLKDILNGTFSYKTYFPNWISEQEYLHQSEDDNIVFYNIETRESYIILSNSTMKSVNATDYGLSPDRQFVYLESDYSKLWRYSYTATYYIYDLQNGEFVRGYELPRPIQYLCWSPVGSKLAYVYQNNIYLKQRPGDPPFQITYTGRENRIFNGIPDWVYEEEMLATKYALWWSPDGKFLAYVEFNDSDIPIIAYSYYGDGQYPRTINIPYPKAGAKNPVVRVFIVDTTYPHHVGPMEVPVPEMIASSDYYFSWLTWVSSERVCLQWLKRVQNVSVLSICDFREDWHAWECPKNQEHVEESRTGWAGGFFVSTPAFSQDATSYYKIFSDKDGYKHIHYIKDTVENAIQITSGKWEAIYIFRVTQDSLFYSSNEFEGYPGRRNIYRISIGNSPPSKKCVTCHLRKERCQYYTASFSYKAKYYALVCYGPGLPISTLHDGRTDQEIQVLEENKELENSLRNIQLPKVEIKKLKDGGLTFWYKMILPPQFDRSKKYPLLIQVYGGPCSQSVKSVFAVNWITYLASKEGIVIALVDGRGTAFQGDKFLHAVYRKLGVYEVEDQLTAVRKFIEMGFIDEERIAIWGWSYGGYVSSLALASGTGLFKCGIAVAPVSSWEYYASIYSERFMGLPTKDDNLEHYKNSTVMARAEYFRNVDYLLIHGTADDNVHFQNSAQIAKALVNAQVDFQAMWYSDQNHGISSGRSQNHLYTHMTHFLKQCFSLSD

T3: Cyno FAP
T3 chain: T1 chain

B1: XENP24460 (1A1B5) (antibody, V domains shown)
VH: EVQLLESGGGLVQPGGSLRLSCAASGFTFSSYAMNWVRQAPGKGLEWVSTISSSGSRTYYADSVKGRFTISRDNSKNTLYLQMNSLRAEDTAVYYCAKGLVASAPFDYWGQGTLVTVSS
VL: not shown
B2: XENP24462 (1F4B5) (antibody, V domains shown)
VH: EVQLLESGGGLVQPGGSLRLSCAASGFTFSRYAMTWVRQAPGKGLEWVSSISASGGSTYYADSVKGRFTISRDNSKNTLYLQMNSLRAEDTAVYYCAKTFSGYAHYDFDYWGQGTLVTVSS
VL: not shown
B3: XENP24466 (1F12B5) (antibody, V domains shown)
VH: EVQLLESGGGLVQPGGSLRLSCAASGFTFSSYAMTWVRQAPGKGLEWVSTISSSGGTTYYADSVKGRFTISRDNSKNTLYLQMNSLRAEDTAVYYCAKYPSYYSVTGFDYWGQGTLVTVSS
VL: not shown
B4: XENP24463 (1F11B5) (antibody, V domains shown)
VH: EVQLLESGGGLVQPGGSLRLSCAASGFTFSSYAMNWVRQAPGKGLEWVSGISGGGSSTTYYADSVKGRFTISRDNSKNTLYLQMNSLRAEDTAVYYCAKPYYWVDSFFDYWGQGTLVTVSS
VL: not shown
B5: XENP24461 (1A7B5) (antibody, V domains shown)
VH: EVQLLESGGGLVQPGGSLRLSCAASGFTFSSYAMSWVRQAPGKGLEWVSGISGGGGSTYYADSVKGRFTISRDNSKNTLYLQMNSLRAEDTAVYYCAKIAHSRIGWHFDYWGQGTLVTVSS
VL: not shown
B6: XENP24471 (1F10B5) (antibody, V domains shown)
VH: EVQLLESGGGLVQPGGSLRLSCAASGFTFSSYGMSWVRQAPGKGLEWVSGISGSGSSTHYADSVKGRFTISRDNSKNTLYLQMNSLRAEDTAVYYCAKGTTGLSYFDYWGQGTLVTVSS
VL: not shown
B7: XENP23534 (sibrotuzumab) (antibody, V domains shown)
VH: QVQLVQSGAEVKKPGASVKVSCKTSRYTFTEYTIHWVRQAPGQRLEWIGGINPNNGIPNYNQKFKGRVTITVDTSASTAYMELSSLRSEDTAVYYCARRRIAYGYDEGHAMDYWGQGTLVTVSS
VL: DIVMTQSPDSLAVSLGERATINCKSSQSLLYSRNQKNYLAWYQQKPGQPPKLLIFWASTRESGVPDRFSGSGFGTDFTLTISSLQAEDVAVYYCQQYFSYPLTFGQGTKVEIKR
B8: XENP24448 (1C3A5) (antibody, V domains shown)
VH: EVQLLESGGGLVQPGGSLRLSCAASGFTFSSYAMSWVRQAPGKGLEWVSAISGSGGGTRYADSVKGRFTISRDNSKNTLYLQMNSLRAEDTAVYYCAKHSSGFHWYFDYWGQGTLVTVSS
VL: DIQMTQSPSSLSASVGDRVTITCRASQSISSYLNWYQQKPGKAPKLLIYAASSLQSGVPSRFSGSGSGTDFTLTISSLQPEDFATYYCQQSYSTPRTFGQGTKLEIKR
B9: XENP24011 (sibrotuzumab, central-scFv) (antibody)
chain 1: QVQLVQSGAEVKKPGASVKVSCKTSRYTFTEYTIHWVRQAPGQRLEWIGGINPNNGIPNYNQKFKGRVTITVDTSASTAYMELSSLRSEDTAVYYCARRRIAYGYDEGHAMDYWGQGTLVTVSSASTKGPSVFPLAPSSKSTSGGTAALGCLVKDYFPEPVTVSWNSGALTSGVHTFPAVLQSSGLYSLSSVVTVPSSSLGTQTYICNVNHKPSDTKVDKKVEPKSCDKTHTCPPCPAPPVAGPSVFLFPPKPKDTLMISRTPEVTCVVVDVKHEDPEVKFNWYVDGVEVHNAKTKPREEEYNSTYRVVSVLTVLHQDWLNGKEYKCKVSNKALPAPIEKTISKAKGQPREPQVYTLPPSREEMTKNQVSLTCDVSGFYPSDIAVEWESDGQPENNYKTTPPVLDSDGSFFLYSKLTVDKSRWEQGDVFSCSVMHEALHNHYTQKSLSLSPGK
chain 2: QVQLVQSGAEVKKPGASVKVSCKTSRYTFTEYTIHWVRQAPGQRLEWIGGINPNNGIPNYNQKFKGRVTITVDTSASTAYMELSSLRSEDTAVYYCARRRIAYGYDEGHAMDYWGQGTLVTVSSASTKGPSVFPLAPSSKSTSGGTAALGCLVKDYFPEPVTVSWNSGALTSGVHTFPAVLQSSGLYSLSSVVTVPSSSLGTQTYICNVNHKPSNTKVDKKVEPKSCGGGGSGGGGSEVQLVESGGGLVQPGGSLRLSCAASGFTFSTYAMNWVRQAPGKGLEWVGRIRSKYNNYATYYADSVKGRFTISRDDSKNTLYLQMNSLRAEDTAVYYCVRHGNFGDSYVSWFAYWGQGTLVTVSSGKPGSGKPGSGKPGSGKPGSQAVVTQEPSLTVSPGGTVTLTCGSSTGAVTTSNYANWVQQKPGKSPRGLIGGTNKRAPGVPARFSGSLLGGKAALTISGAQPEDEADYYCALWYSNHWVFGGGTKLTVLGGGGSGGGGSKTHTCPPCPAPPVAGPSVFLFPPKPKDTLMISRTPEVTCVVVDVKHEDPEVKFNWYVDGVEVHNAKTKPREEQYNSTYRVVSVLTVLHQDWLNGKEYKCKVSNKALPAPIEKTISKAKGQPREPQVYTLPPSREQMTKNQVKLTCLVKGFYPSDIAVEWESNGQPENNYKTTPPVLDSDGSFFLYSKLTVDKSRWQQGNVFSCSVMHEALHNHYTQKSLSLSPGK
chain 3: not shown
B10: XENP23936 (3F2, central-scFv) (antibody)
chain 1: not shown
chain 2: not shown
chain 3: EIVLTQSPGTLSLSPGERATLSCRASQSVTSSYLAWYQQKPGQAPRLLINVGSRRATGIPDRFSGSGSGTDFTLTISRLEPEDFAVYYCQQGIMLPPTFGQGTKVEIKRTVAAPSVFIFPPSDEQLKSGTASVVCLLNNFYPREAKVQWKVDNALQSGNSQESVTEQDSKDSTYSLSSTLTLSKADYEKHKVYACEVTHQGLSSPVTKSFNRGEC

The target of the first assay is T1, Cyno. As to the kind of experiment: Octet.
Molecule B1 displayed a Kd of 0.458 nM.

The molecule B2 yielded a Kd of 0.53 nM.

As to B3, the Kd was less than 0.001 nM.

For B4, the Kd was found to be 0.0224 nM.

For the molecule B5, the Kd is 1.11 nM.

B6: the Kd was found to be 6.93 nM.

Take B7: the Kd is less than 0.001 nM.

In the case of B8, the Kd is 5.01 nM.

A further assay deals with T2, His-tagged murine FAP. As to the kind of experiment: Octet. (Biolayer interferometry detects binding as a change in optical thickness at a sensor tip.)
As for B2, the Kd came out at 33 nM.

Consider B4, for which the Kd was found to be 45.5 nM.

For B6, the Kd was 4.52 nM.

In a further assay the target is T4, His-tagged human FAP (human, UniProt Q12884 26-760). Briefly: Octet.
With B1, the Kd worked out at 0.515 nM.

B2 gave a Kd of 0.372 nM.

The molecule B3 displayed a Kd of less than 0.001 nM.

B4: the Kd was less than 0.001 nM.

For B5, the Kd amounted to 1.02 nM.

In the case of B6, the Kd was found to be 9.13 nM.

The molecule B7 gave a Kd of less than 0.001 nM.

The molecule B8 came in with a Kd of 4.54 nM.

The target of a further assay is T3, Cyno FAP. Briefly: Octet; apparent KD.
As for B9, the Kd was 0.0149 nM.

B10: the Kd was 0.187 nM.

The target in the next assay is T4, His-tagged human FAP. Briefly: Octet; apparent KD.
B9: the Kd is 0.0308 nM.

In the case of B10, the Kd is 0.323 nM.
